Consider eight molecules from patent publication US20200317802A1.

Assay [1] concerns the target bovine recombinant ADAMTS5 (bovine). The assay can be described thus: SPR off-rate, Biacore T100, ADAMTS5 immobilised, experiment 3. For orientation: Surface plasmon resonance follows binding to a sensor surface in real time, without labels.
The target in assay [2] is T1, human ADAMTS4 (R&D Systems cat #4307-AD) (human) (UniProt O75173).
T1 sequence (looked up): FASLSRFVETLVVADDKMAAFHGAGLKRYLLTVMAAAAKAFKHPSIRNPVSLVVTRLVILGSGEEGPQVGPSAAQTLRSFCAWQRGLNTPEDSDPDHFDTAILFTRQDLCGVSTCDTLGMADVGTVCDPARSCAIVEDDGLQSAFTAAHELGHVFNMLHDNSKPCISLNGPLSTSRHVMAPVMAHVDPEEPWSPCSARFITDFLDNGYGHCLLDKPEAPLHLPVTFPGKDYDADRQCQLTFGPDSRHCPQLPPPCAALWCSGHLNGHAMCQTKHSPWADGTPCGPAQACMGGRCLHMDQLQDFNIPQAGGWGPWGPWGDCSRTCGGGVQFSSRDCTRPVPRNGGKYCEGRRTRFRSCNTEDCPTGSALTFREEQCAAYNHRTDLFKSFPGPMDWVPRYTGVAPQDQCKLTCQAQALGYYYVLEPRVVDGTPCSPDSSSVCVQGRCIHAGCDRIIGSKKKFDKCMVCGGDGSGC

Assay [3] concerns the target activated human MMP-1 (human) (UniProt P03956).
For assay [4], the target named is recombinant human ADAMTS5 (R&D Systems cat #2198-AD) (human) (UniProt Q9UNA0). Kind of assay: cell-based or functional assay.
recombinant human ADAMTS5 (R&D Systems cat #2198-AD) (human), sequence (Q9UNA0 262-622 limits assumed): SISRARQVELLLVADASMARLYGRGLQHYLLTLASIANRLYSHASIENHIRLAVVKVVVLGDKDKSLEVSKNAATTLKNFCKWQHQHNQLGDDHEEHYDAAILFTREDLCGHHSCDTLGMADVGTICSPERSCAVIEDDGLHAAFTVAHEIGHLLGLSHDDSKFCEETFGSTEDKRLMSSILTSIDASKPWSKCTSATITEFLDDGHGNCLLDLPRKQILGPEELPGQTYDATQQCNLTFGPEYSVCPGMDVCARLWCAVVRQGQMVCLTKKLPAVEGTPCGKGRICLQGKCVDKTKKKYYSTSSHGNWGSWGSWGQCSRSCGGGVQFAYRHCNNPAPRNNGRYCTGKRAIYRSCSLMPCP

Changes are numbered by the printed parent chain.

activated human MMP-1 (human), sequence (P03956 100-469 limits assumed): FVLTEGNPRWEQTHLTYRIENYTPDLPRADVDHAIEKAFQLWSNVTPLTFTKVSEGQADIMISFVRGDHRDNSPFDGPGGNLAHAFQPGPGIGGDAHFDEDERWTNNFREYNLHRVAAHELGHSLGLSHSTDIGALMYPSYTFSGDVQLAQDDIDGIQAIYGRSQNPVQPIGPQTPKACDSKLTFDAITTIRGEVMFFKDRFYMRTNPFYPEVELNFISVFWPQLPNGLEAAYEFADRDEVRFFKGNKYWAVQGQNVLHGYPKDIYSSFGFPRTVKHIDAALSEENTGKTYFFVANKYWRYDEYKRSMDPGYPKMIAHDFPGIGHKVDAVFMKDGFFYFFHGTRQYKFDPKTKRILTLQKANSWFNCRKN

B1: Nanobody 2F03 (VHH)
VHH: EVQLVESGGGLVQAGGSLRLSCAASGRTVSSYAMGWFRLAPGKEREFVAGISRSAERTYYVDSLKGRFTISRDSAKNTVYLHMNRLKPEDTAVYYCAADLDPNRIFSREEYAYWGQGTLVTVSS
One may read the koff as the first-order rate constant of dissociation. As to B1, the koff in assay [1] came out at 4.3e-05 s⁻¹.

B2: Nanobody 2A12 (VHH)
VHH: B1 VHH with V29F, L39Q, E46D, E56G, L64V, H82Q, E109D, Y111A
Turning to B2, the koff in assay [1] stood at 0.00017 s⁻¹.

B3: Nanobody 3B02 (VHH)
VHH: EVQLVESGGGFVQAGGSLRLSCVASRRTISSGTMGWFRQAPGKEREFVAAIRWSSGMPYYLDSVMDRFTISRDNAKNTVSLQMNSLQPEDTAVYYCAADRSAFRDPSFDVNYEYWGRGTLVTVSS
Turning to B3, in assay [1], the koff is 0.0011 s⁻¹.

B4: Nanobody 3D01 (VHH)
VHH: EVQLVESGGGLVQAGGSLRLSCAPSGFTFSPYYMGWFRQAPGKERDFVAAISRSRGTTYYLDSTEGRFTISRDNANDTVYLQMNSLNPEDTAVYYCAAGRSPGDPSRTYLYDYWGQGTLVTVSS
Turning to B4, in assay [1], the koff worked out at 0.00035 s⁻¹.

B5: rhTIMP3 (protein, human, UniProt P35625 24-211, looked up)
chain: CTCSPSHPQDAFCNSDIVIRAKVVGKKLVKEGPFGTLVYTIKQMKMYRGFTKMPHVQYIHTEASESLCGLKLEVNKYQYLLTGRVYDGKMYTGLCNFVERWDQLTLSQRKGLNYRYHLGCNCKIKSCYYLPCFVTSKNECLWTDMLSNFGYPGYQSKHYACIRQKGGYCSWYRGWAPPDKSIINATDP
In assay [2], B5 came in with an IC50 (read off the curve) (human ADAMTS-4 AlphaLISA) [right panel] of 2 nM. For the same molecule, the IC50 (read off the curve) (human MMP-1 activity, FRET peptide substrate) in assay [3] is 5 nM. In assay [4], the Human AlphaLISA % inhibition came out at 100% and the Human AlphaLISA IC50 amounted to 0.61 nM.

B6: Nanobody 11B06 (VHH)
VHH: EVQLVESGGGLVQAGGSLRLSCAASGLTFRRNAMGWFRQAPGKERELLAGINWSGGTTYYVDSVKGRFTISRDNAKNTVDLQMISPKPEDTAVYYCAADGDIGTLVNDENPRYWGQGTLVTVSS
For B6, the koff in assay [1] stood at 0.00024 s⁻¹.

B7: Nanobody 2D07 (VHH)
VHH: EVQLVESGGGLVQAGGSLRLSCSFSGPGRTFARYAMGWFRQAPGKNRDFITGISGSGDSTYYVYPMKDRFTISRDNAKNMVYLQMNALKPEDTAVYYCAADREINRIANDKELDFWGQGTLVTVSS
In the case of B7, the koff in assay [1] was found to be 0.00062 s⁻¹.

B8: Nanobody 9D03 (VHH)
VHH: EVQLVESGGGLVQSGGSLRLSCAASGSAVSVNAMAWYRQAPGKQRDFVAGISRSAGRTYYTDSVKDRFTIARDSAKNTVYLQMNRLKPEDTAVYYCAADLDPNRIFSRDEAAYWGQGTLVTVSS
In the case of B8, the koff in assay [1] was determined as 0.00099 s⁻¹.
